The substances below were run against hemagglutinin H3 on influenza virus A/Aichi/2/68 strain (H3N2) (influenza virus A/Aichi/2/68 (H3N2)) (UniProt P03437) (assay: cell-based or functional assay).

Substance	IC50(µM), plaque assay, infection of MDCK cells
C18-s2(1-2) (C18-AR peptide amide)	> 100 µM
C18-s2(1-3) (C18-ARL peptide amide)	> 100 µM
C18-s2(1-4) (C18-ARLP peptide amide)	21 µM
C18-s2(1-4)P4A (C18-ARLA peptide amide)	> 100 µM
C18-s2(1-5) (C18-ARLPR peptide amide)	3 µM
C18-s2(1-6) (C18-ARLPRT peptide amide)	5 µM
C18-s2(1-7) (C18-ARLPRTM peptide amide)	9.1 µM
C18-s2(2-8) (C18-RLPRTMV peptide amide)	> 100 µM
C18-s2(5-11) (C18-RTMVHPK peptide amide)	> 100 µM
C18-s2(8-15) (C18-VHPKPAQP peptide amide)	10.5 µM
C18-s2(r1-8) (C18-VMTRPLRA peptide amide)	226 µM

Molecular target: hemagglutinin H3 on influenza virus A/Aichi/2/68 strain (H3N2) (influenza virus A/Aichi/2/68 (H3N2)) (UniProt P03437)
Assay: cell-based or functional assay
Remark: another data set of the same source

Substance	IC50(µM), plaque assay, infection of MDCK cells
C18-s2(1-5) (C18-ARLPR peptide amide)	1.55 µM
C18-s2(1-8) (C18-ARLPRTMV peptide amide)	1.4 µM
C18-s2(r1-4) (C18-PLRA peptide amide)	14 µM
C18-s2(r1-5) (C18-RPLRA peptide amide)	0.94 µM

Source: patent US20100119588A1
